Key:
[1] = target: human CXCR6[DRF] (CXC-chemokine receptor 6, wild type with the DRF motif) (human, UniProt O00574 1-342); experiment: cell-based or functional assay
[2] = target: T1, human CXCR6[DRY] (DRF motif mutated to DRY) (human, UniProt O00574 1-342, DRF to DRY (F128^3.51)); experiment: cell-based or functional assay
T1 sequence (looked up): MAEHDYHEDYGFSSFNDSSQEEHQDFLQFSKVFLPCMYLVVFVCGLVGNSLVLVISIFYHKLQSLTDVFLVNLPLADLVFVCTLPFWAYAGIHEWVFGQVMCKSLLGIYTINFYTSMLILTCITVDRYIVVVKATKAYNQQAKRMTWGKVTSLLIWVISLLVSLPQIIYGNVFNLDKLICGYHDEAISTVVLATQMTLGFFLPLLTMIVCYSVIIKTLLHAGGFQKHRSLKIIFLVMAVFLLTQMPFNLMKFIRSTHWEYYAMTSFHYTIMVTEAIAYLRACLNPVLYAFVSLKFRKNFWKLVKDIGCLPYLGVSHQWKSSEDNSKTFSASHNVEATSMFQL

B1: human CXCL16-Fc fusion protein (Fc fusion, UniProt Q9H2A7 30-205, looked up)
chain: NEGSVTGSCYCGKRISSDSPPSVQFMNRLRKHLRAYHRCLYYTRFQLLSWSVCGGNKDPWVQELMSCLDLKECGHAYSGIVAHQKHLLPTSPPISQASEGASSDIHTPAQMLLSTLQSTQRPTLPVGSLSSDKELTRPNETTIHTAGHSLAAGPEAGENQKQPEKNAGPTARTSAT
adhesion of THP-1 cells expressing the receptor to immobilized CXCL16-Fc for 30 min, normalized to cells adhering to anti-human-Fc [1]: ~4 fold | adhesion of THP-1 cells to immobilized CXCL16-Fc for 5, 15 and 30 min, CXCR6[DRF] cells compared to CXCR6[DRY] cells [1]: 2 fold | adhesion of THP-1 cells expressing the receptor to immobilized CXCL16-Fc for 30 min, normalized to cells adhering to anti-human-Fc [2]: ~4 fold

From article PMC5340378, “The DRF motif of CXCR6 as chemokine receptor adaptation to adhesion” (PLoS ONE, 2017)
